This passage reports binding result and Kd results from article PMC5241803, “Structural basis for the recognition and degradation of host TRIM proteins by Salmonella effector SopA” (Nature Communications, 2017).

One experiment addresses T1, GST-SopA (S. Typhimurium, UniProt Q8ZNR3 1-782).
T1 construct: also called recombinant SopA; source: E. coli BL21 (DE3), purified on glutathione sepharose 4B beads; not shown: GST, N-terminal, kept
T1 sequence: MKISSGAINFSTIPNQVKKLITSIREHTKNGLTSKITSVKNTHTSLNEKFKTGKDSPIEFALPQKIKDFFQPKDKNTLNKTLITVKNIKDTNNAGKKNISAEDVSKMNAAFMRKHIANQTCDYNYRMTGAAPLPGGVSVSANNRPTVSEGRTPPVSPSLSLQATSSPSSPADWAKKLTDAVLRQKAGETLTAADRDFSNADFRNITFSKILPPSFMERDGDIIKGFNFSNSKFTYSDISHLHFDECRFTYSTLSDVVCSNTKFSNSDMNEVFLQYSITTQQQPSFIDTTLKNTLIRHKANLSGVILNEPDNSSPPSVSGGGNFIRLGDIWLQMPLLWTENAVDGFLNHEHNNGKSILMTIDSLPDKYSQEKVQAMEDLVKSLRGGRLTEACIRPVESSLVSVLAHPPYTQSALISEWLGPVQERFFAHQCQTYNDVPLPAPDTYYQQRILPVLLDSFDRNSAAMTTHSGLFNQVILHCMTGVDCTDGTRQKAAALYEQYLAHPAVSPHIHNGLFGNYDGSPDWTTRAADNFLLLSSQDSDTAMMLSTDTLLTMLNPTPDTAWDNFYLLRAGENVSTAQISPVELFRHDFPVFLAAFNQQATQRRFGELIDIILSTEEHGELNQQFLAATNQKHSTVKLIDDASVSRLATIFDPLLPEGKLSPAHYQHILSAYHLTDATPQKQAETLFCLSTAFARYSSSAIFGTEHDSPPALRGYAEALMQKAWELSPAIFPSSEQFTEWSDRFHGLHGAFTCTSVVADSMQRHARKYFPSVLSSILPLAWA
The experiment is described as follows: pull-down. Particulars: both partners purified.

A further experiment has as its target T2, SopA (163–782) (S. Typhimurium, UniProt Q8ZNR3 163-782).
T2 construct: also called SopA WT; source: bacterially expressed, purified (Talon beads, size exclusion)
T2 sequence: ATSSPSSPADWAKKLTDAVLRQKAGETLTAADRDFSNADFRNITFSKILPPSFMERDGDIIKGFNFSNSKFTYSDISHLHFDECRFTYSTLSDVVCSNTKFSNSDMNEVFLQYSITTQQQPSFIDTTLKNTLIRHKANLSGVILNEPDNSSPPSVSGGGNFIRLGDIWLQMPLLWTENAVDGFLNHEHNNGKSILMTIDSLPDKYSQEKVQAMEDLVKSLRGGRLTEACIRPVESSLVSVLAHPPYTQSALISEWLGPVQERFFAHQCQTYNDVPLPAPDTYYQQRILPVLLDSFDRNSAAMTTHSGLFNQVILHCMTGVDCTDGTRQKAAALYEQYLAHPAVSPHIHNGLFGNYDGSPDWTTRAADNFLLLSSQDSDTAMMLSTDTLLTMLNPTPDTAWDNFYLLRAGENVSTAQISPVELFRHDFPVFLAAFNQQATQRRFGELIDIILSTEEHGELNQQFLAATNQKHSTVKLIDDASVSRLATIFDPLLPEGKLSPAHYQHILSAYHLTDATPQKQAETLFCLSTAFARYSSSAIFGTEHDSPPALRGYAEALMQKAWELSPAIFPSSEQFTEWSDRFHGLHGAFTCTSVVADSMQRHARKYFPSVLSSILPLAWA
The experiment is described as follows: ITC; 1 mM TRIM56 (1–94) injected into 20 μM SopA (163–782) in the cell, 25 °C, 10 mM HEPES, 100 mM NaCl, 1 mM TCEP; VP-ITC. Particulars: both partners purified. (In general: In ITC the heat of successive injections is recorded.)

B1: MBP-TRIM56 (natural protein, human, UniProt Q9BRZ2 1-755, looked up)
chain: MVSHGSSPSLLEALSSDFLACKICLEQLRAPKTLPCLHTYCQDCLAQLADGGRVRCPECRETVPVPPEGVASFKTNFFVNGLLDLVKARACGDLRAGKPACALCPLVGGTSTGGPATARCLDCADDLCQACADGHRCTRQTHTHRVVDLVGYRAGWYDEEARERQAAQCPQHPGEALRFLCQPCSQLLCRECRLDPHLDHPCLPLAEAVRARRPGLEGLLAGVDNNLVELEAARRVEKEALARLREQAARVGTQVEEAAEGVLRALLAQKQEVLGQLRAHVEAAEEAARERLAELEGREQVARAAAAFARRVLSLGREAEILSLEGAIAQRLRQLQGCPWAPGPAPCLLPQLELHPGLLDKNCHLLRLSFEEQQPQKDGGKDGAGTQGGEESQSRREDEPKTERQGGVQPQAGDGAQTPKEEKAQTTREEGAQTLEEDRAQTPHEDGGPQPHRGGRPNKKKKFKGRLKSISREPSPALGPNLDGSGLLPRPIFYCSFPTRMPGDKRSPRITGLCPFGPREILVADEQNRALKRFSLNGDYKGTVPVPEGCSPCSVAALQSAVAFSASARLYLINPNGEVQWRRALSLSQASHAVAALPSGDRVAVSVAGHVEVYNMEGSLATRFIPGGKASRGLRALVFLTTSPQGHFVGSDWQQNSVVICDGLGQVVGEYKGPGLHGCQPGSVSVDKKGYIFLTLREVNKVVILDPKGSLLGDFLTAYHGLEKPRVTTMVDGRYLVVSLSNGTIHIFRVRSPDS
notes: TRIM56, human, full length, in pMAL-C2X; also called recombinant TRIM56; not shown: MBP, N-terminal, kept
On to B1, for which, in the experiment with GST-SopA, the binding result is recorded as “binds”.

B2: TRIM56 (1–94) (domain or fragment, human, UniProt Q9BRZ2 1-94, looked up)
chain: MVSHGSSPSLLEALSSDFLACKICLEQLRAPKTLPCLHTYCQDCLAQLADGGRVRCPECRETVPVPPEGVASFKTNFFVNGLLDLVKARACGDL
notes: TRIM56, human, RING domain, residues 1-94; in the crystal this stretch stood N-terminal on one chain with SopA (163–425); also called TRIM56 RING domain; TRIM56 RING
For the molecule B2, in the experiment with SopA (163–782), the Kd was approximately 9 µM.

As a reminder, the Kd is the constant that tells how readily two partners part at equilibrium.
